# Experimental data as given in patent US20030049732.
# T1: Nod1
# T1 chain: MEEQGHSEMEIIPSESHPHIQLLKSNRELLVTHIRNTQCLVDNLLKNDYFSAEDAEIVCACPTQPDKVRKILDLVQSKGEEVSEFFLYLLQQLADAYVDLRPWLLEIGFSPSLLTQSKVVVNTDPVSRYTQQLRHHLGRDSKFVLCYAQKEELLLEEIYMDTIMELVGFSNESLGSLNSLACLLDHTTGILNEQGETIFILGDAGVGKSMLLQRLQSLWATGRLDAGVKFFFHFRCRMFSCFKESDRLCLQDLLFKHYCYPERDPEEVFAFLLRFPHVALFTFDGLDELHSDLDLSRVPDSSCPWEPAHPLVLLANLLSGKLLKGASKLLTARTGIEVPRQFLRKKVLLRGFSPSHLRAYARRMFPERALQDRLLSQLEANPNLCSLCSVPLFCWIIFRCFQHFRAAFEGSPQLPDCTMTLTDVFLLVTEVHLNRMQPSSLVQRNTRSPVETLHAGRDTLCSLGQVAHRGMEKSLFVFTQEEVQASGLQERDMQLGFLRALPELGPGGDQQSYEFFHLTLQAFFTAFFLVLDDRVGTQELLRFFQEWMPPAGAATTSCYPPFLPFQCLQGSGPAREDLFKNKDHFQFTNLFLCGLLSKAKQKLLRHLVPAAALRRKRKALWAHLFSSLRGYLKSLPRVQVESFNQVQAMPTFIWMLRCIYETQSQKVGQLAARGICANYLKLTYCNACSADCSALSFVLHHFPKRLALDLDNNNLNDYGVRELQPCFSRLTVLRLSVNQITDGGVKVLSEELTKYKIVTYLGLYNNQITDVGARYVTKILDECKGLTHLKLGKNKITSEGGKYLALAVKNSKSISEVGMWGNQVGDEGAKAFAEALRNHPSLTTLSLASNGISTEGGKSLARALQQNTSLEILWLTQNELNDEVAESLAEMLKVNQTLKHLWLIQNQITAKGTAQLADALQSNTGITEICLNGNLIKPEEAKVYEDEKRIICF
# Target: T1, Nod1
protein,measurement,value
Caspase-9 (protein) MDEADRRLLRRCRLRLVEELQVDQLWDALLSRELFRPHMIEDIQRAGSGSRRDQARQLIIDLETRGSQALPLFISCLEDTGQDMLASFLRTNRQAAKLSKPTLENLTPVVLRPEIRKPEVLRPETPRPVDIGSGGFGDVGALESLRGNADLAYILSMEPCGHCLIINNVNFCRESGLRTRTGSNIDCEKLRRRFSSLHFMVEVKGDLTAKKMVLALLELAQQDHGALDCCVVVILSHGCQASHLQFPGAVYGTDGCPVSVEKIVNIFNGTSCPSLGGKPKLFFIQACGGEQKDHGFEVASTSPEDESPGSNPEPDATPFQEGLRTFDQLDAISSLPTPSDIFVSYSTFPGFVSWRDPKSGSWYVETLDDIFEQWAHSEDLQSLLLRVANAVSVKGIYKQMPGCFNFLRKKLFFKTS,"proteolytic processing of procaspase-9 (SDS-PAGE, anti-Flag immunoblot of 293T lysates)","Expression of Nod1 includes the proteolytic activation of procaspase-9, but not that of procaspase-8"
Caspase-8 (protein) MDFSRNLYDIGEQLDSEDLASLKFLSLDYIPQRKQEPIKDALMLFQRLQEKRMLEESNLSFLKELLFRINRLDLLITYLNTRKEEMERELQTPGRAQISAYRVMLYQISEEVSRSELRSFKFLLQEEISKCKLDDDMNLLDIFIEMEKRVILGEGKLDILKRVCAQINKSLLKIINDYEEFSKERSSSLEGSPDEFSNGEELCGVMTISDSPREQDSESQTLDKVYQMKSKPRGYCLIINNHNFAKAREKVPKLHSIRDRNGTHLDAGALTTTFEELHFEIKPHDDCTVEQIYEILKIYQLMDHSNMDCFICCILSHGDKGIIYGTDGQEAPIYELTSQFTGLKCPSLAGKPKVFFIQACQGDNYQKGIPVETDSEEQPYLEMDLSSPQTRYIPDEADFLLGMATVNNCVSYRNPAEGTWYIQSLCQSLRERCPRGDDILTILTEVNYEVSNKDDKKNMGKQMPQPTFTLRKKLVFPSD,"proteolytic processing of procaspase-8 (SDS-PAGE, anti-HA immunoblot of 293T lysates)","Expression of Nod1 includes the proteolytic activation of procaspase-9, but not that of procaspase-8"
